For 1 substance, stoichiometry N results are on record in paper doi:10.1101/2025.03.29.646087.

A word on the stoichiometry N: it is the number of molecules, sites or subunits per partner or assembly.

In this assay the target is SARS-CoV-2 nsp15 with H234A mutation and a N-terminal Strep-Tag II (SARS-CoV-2). The assay is described as follows: cryo-EM structure.

“SARS-CoV-2 nsp15 with H234A mutation and a N-terminal Strep-Tag II (enzyme)”: the stoichiometry N worked out at 6.
